Experimental data from a protein production outcome set (Wang et al. 2014).

Test: label from the status in PepcDB records

Question: With “MDEYAGRVLADRYRLPLPPSDEYELAETRAFDTYSGQEVLVRQVPLPEVVEAEVLDADGLPAGFVARDGGTRRASARTATRRPAEPAVRRAIEAAQAAAQIPDHPRLDQVFDVFAEGGSLWIVSELVAARPLAALLADKPLSPYRAAEVASDVLMALRVLHAHGWVHRNITVRTVLVCDDGRVMLTGLAAGAAEEALCGYDPVPVRDFEPRGDDGGDGTGGNGRGAVRGAAAGGTPGIGSGPGAGSGRPGIGAGSGGPVGAAGGAVGAAAGGMSVAEAEAARRAAIEARAGGVGPVAGTPGGEVPARGARALEGGGDARAQRAGAIAAYRAGARAAARVQEAQRGGRAALPAPRPADAEGRAPQSPGHGVEHLPGALPGQIADPYGVARTNSWPGGFPGDVGGANVGGAYGTPGNGSGTYENGSVPHAPADAPVSTPTPADAVPPTHWDHLVSGSSAPSGPSAASVPRRGPTTALAAERARQARMAVIGPVTERWAPEQAGPVHENWQLAAPIGPATDLWALGALLFRAVQGHAPYPEENTAELVQLVCAEPPAFAEECGPLRPVVESLLRQDPTERLDFEEVRGWLRSLVRSAPEPEAGAHVVAAPPVDPRRLPIVRRRGELVRRRRARLPATTPHARHKRAKDGRPPRPKRLGRNLVLLILLVLAAAVAYAMVFMPKASPNSDSGSRSDGDRTGAAGGVSPAPEQSGGGSEPRPDQTSPGSGKSPSGSSGSTREQTTDPDVAQGFTLRKDPEGFRVAVATGWDRAPKNGRGRIVYSHGDFELIVVPGRDSTADHGSDPLTYQRETESELQPFRDSTWATSSGMRRIDVGGRTMAEGQFTWTDGQGRELFVRNLAIVVGGRYHVVQLRGPEAERDEVTRLYEQASRTYQVTG” as the sequence, how does the protein production read?
Answer: failed

Question: Which protein production does the source give for “MDFAFEKVARDWFVRWSKGRSEKYAGQVMRNFERWVFPAIGNLDIRQVRTADVVGCLRVMEARGIVDTLRKTKNSLKMVFAFAVGSGMMEINPVAQIGSGVFERLEHHHHHH” here?
Answer: failed

Question: Which protein production does the source give for “MDFGLATTLYPDEYNYQTDAYSPTSSPVDLVQVIQQLHASLDPRTVFACYGKVLGQHLPIQGVRLQSEQHKLSWGKRYGISLKRQIICGGTPLTLQYQLLTPLTPSQSICLQEIEPLLLQPLLNAMQYQEMSMQAMFDALTGLGNRHYYSQSLKNAVARAQRKQGSVSLIVLDLDNFKKLNDKYGHKCGDYILKEFGDIIRSSIRSTDQAFRIGGDEFVVIVQGNIHAAGLLCERIVSATNTHASFHQFGVSCSLGAAEASETMEAEQLYEQADKTLYQAKASGRNCYKLSPTQLS” here?
Answer: failed

Question: For “MDFGTQGPQAPAELAWLRGVDAYTMGAYPQAEEEFRAAVRIDPTMADGWLGLHALRVDTTNALLRMFRNRDRFGEQRARHRRTLNSWYWLGWWVQPVLENPRDLLLAHASHWLDGRHVPELDRALAGLPPVDSDAQVRFLHACRAYLVKDWEQLVRHTDPLLGDPLLGIEAGLFSGMARVRLEMYGQAEPLLSAALMRCRSEQPQRKELRYWLARAHEGTGRSAAALPLYRAVHRVDPAFMDTSARLAAIAEGDGYDDPADLTGYAQAGAGTDGLDGLDPLFGTEERGVKVSAPEPALSAPLPPLGGPSVREKAGGPDPSLPSGPTDPALLEEALAELERMVGLEPVKRQVKALSAQLNMARLRAGQGLPVQPPKRHFVFSGPSGTGKTTVARILGRVFYALGLLGGDHLVEAQRADLVGEYLGQTAVKANELIDSALGGVLFVDEAYSLSNSGYGKGDAYGDEALQVLLKRAEDNRDHLVVILAGYPEGMDRLLGANPGLSSRFTTRVDFPSYRPLELTSIGEVLAAENGDVWDEEALDELRSIAGHVVDQGWIDELGNGRFLRTLYEKSCAYRDLRLSVYPGALTRDDLATLRLPDLMQAYGEVLSGRGPGGPSAG”, which protein production is on record?
Answer: failed

Question: With “MDFHIRKATNSDAEAIQHVATTSWHHTYQDLIPSDVQDDFLKRFYNVETLHNRISATPFAVLEQADKVIGFANFIELEKGKSELAAFYLLPEVTQRGLGTELLEVGMTLFHVPLPMFVNVEKGNETAIHFYKAKGFVQVEEFTEDFYGYPLETIRFNLNH” as the sequence, how does the protein production read?
Answer: not failed

Question: Which protein production does the source give for “MDFKQRHTWLKIASCKSISAKKRASIWQKLTEFDQYEMTTQTFAESFFPVDKLAQILMELETAEACFFDDVTLIWILDDAYPALLREIYEAPPILFCKGNIDLLQQQAIAIVGTRQMSEYGRKACMKIASELAENKLTIVSGMAIGIDSTAHRATLNKQGATIAVLGSGVNKVYPKKNELLAKEIVKEGLLLSEYLPDEEAKRWHFPERNRIISGLAIGTVIIEAAERSGSLITADIALEQNRQVFAVPGNIFIDTWQGTNYLIQEGAKLVMNSNNIIEEFIQIKP” here?
Answer: failed

Question: Which protein production does the source give for “MDFLARATAIVGNTMVLMRRFGSPGTQAIGQSPAIPEAQKQGIMTLKMPAAKGWAPGHLPTPAPGLKVNAFARDLEHPRWIEVLPSGDVLVAEARQLPTPPKTLLDRAAQATMRRIRALGDSPNRITLLRDPDGRGEAQERETFLENQSQPFGMALVGDTFYVGNTDGIMAFPYRPGATRLEGPGRRLTTFKPGGHWTRSLIVSPDGRRIYAGVGSLSNIGDDGMEAEEGRAAIWELDLASGQARIYASGLRNPVGLAWEPTTRVLWTVVNERDGLGDETPPDYLTSVEEDGFYGWPYCYWNRIVDDRVPQDPAMVARAITPDYALGGHTASLGLCWVPAGTLPGFGDGMAIGQHGSWNRSKLSGYRLIFVPFANGRPSGPPRDILTGFLSDDEKLAYGRPVGVAVGPDRRSLLLADDVGDVIWRVTGALEHHHHHH” here?
Answer: failed

Question: Which protein production does the source give for “MDFPTISRSPSGPPAMDLEGPRDILVPSEDLTPDSQWDPMPGGPGSLSRMELDESSLQELVQQFEALPGDLVGPSPGGAPCPLHIATGHGLASQEIADAHGLLSAEAGRDDLLGLLHCEECPPSQTGPEEPLEPAPRLLQPPEDPDEDSDSPEWVEGASAEQEGSRSSSSSPEPWLETVPLVTPEEPPAGAQSPETLASYPAPQEVPGPCDHEDLLDGVIFGARYLGSTQLVSERNPPTSTRMAQAREAMDRVKAPDGETQPMTEVDLFVSTKRIKVLTADSQEAMMDHALHTISYTADIGCVLVLMARRRLARRPAPQDHGRRLYKMLCHVFYAEDAQLIAQAIGQAFAAAYSQFLRESGIDPSQVGVHPSPGACHLHNGDLDHFSNSDNCREVHLEKRRGEGLGVALVESGWGSLLPTAVIANLLHGGPAERSGALSIGDRLTAINGTSLVGLPLAACQAAVRETKSQTSVTLSIVHCPPVTTAIIHRPHAREQLGFCVEDGIICSLLRGGIAERGGIRVGHRIIEINGQSVVATPHARIIELLTEAYGEVHIKTMPAATYRLLTGQEQPVYL” here?
Answer: not failed

Question: Which protein production does the source give for “MDFQHRPGGKTGSGGVASSSESNRDRRERLRQLALETIDINKDPYFMKNHLGSYECKLCLTLHNNEGSYLAHTQGKKHQTNLARRAAKEAKEAPAQPAPEKVKVEVKKFVKIGRPGYKVTKQRDSEMGQQSLLFQIDYPEIAEGIMPRHRFMSAYEQRIEPPDRRWQYLLMAAEPYETIAFKVPSREIDKAEGKFWTHWNRETKQFFLQFHFKMEKPPAPPSLPAGPPGVKRPPPPLMNGLPPRPPLPESLPPPPPGGLPLPPMPPTGPAPSGPPGPPQLPPPAPGVHPPAPVVHPPASGVHPPAPGVHPPAPGVHPPAPGVHPPTSGVHPPAPGVHPPAPGVHPPAPGVHPPAPGVHPPAPGVHPPPSAGVHPQAPGVHPAAPAVHPQAPGVHPPAPGMHPQAPGVHPQPPGVHPSAPGVHPQPPGVHPSNPGVHPPTPMPPMLRPPLPSEGPGNIPPPPPTN” here?
Answer: failed

Question: Which protein production does the source give for “MDFSKAFGLVYKALDYRSLRQDMIASNIANVDTPFYRPKDLDFESVLAKKKAEIFENQSSKVLPLAHTNPRHLDFENSAKDGASLFFRDGHLAKNDGNSVDLDIETSEMGKNSTMYLALSSALKKYRGVINYAIDSSKNL” here?
Answer: failed

Question: For “MDFSQLGGLLDGMKKEFSQLEEKNKDTIHTSKSGGGMVSVSFNGLGELVDLQIDDSLLEDKEAMQIYLMSALNDGYKAVEENRKNLAFNMLGNFAKL”, which protein production is on record?
Answer: not failed

Question: Which protein production does the source give for “MDFVPKILGNVVLLLSAGLNWTAMRVFAGRRPHVPGLLAGAGIWLILCVVPAFYQSMPVRVSVYSLLAAAYGVLTLLEFWRSRQQLEVAYMPAVVLTLLHTMYYIVRAVVDQGVAMDQALKGYGAGVPLFSFMLFESMLYVIGIAYVTLCMVKERVELRFKAAAFCDALTGIGNRRAFMVNGERMLIECQRRCSPMALLLCDLDHFKRLDDAYGHQTGDQVLVAFSQVLAETLGTKDVYARIGGEEFACLLAATDEQAAVTVAERVRQAFARLPLLEPGLLSVSIGVVSSETRGYDLPRLLSLADEALYDAKHQGRNRVHTVSRSALELQPD” here?
Answer: failed

Question: For “MDFVPSLPTLIAFTIAILLLAVTPGPDMTLWISRSLREGRAAGFMTLVGTNIGITVHTMLVAFGVAALIVASPTAFMILKTGGAAYLVWLAIQAIRKGSDFVMVKSTGEKAQASLKSALLNGIWVNLLNPKVIIFFMTFLPQFVSATDPHVTGKLIFLGIWSIIVALPIGIGIVVTADILSAWLQRNRKVLRGLDYTIAGVFSLFAVKIFFTQTR”, which protein production is on record?
Answer: failed

Question: Which protein production does the source give for “MDFYQFAEYIVLNYGYFGIFLIAFTEAVIQPILPDIFIIGASAFGLDSVTCALVASFGSLTGGYTGYFLGKKLGTNVFLKIFKEKYFIKGKAFFEKFGVWGVAIAGFTPIPYKVFAWLAGIFKMNLVSFGAGTLLGRIPRFLLVAYFGYSLGLLFGLHTP” here?
Answer: failed

Question: Which protein production does the source give for “MDGDFRTSFVREPAGLRPYPALVLNADYRPLSYYPLSLWPWQEAIKAAFLDRVSIVAEYDQVVRSQRAALRIPSVVVLKEFVSPQKRVAFTRFNLFLRDEFRCQYCGAKGDLTFDHVVPRARGGVTSWQNVVAACSPCNLHKGSKTLKQAGMRLARIPREPTPAEMQRHGQRFPPNHLHDSWLDYLYWDAELEALEHHHHHH” here?
Answer: failed

Question: For “MDGHNQNQYQNQNQIQQSQQPPLKKYVTQRRSVDVSSPYINLYYNRRHGLPNLVVEPETSYTIDIMPPNAYRGRDRVINLPSKFTHLSSNKVKHVIPAIQWTPEGRRLVVATYSGEFSLWNASSFTFETLMQAHDSAVTTMKYSHDSDWMISGDADGMIKIWQPNFSMVKEIDAAHTESIRDMAFSSNDSKFVTCSDDNILKIWNFSNGKQERVLSGHHWDVKSCDWHPEMGLIASASKDNLVKLWDPRSGNCISSILKFKHTVLKTRFQPTKGNLLMAISKDKSCRVFDIRYSMKELMCVRDETDYMTLEWHPINESMFTLACYDGSLKHFDLLQNLNEPILTIPYAHDKCITSLSYNPVGHIFATAAKDRTIRFWTRARPIDPNAYDDPTYNNKKINGWFFGINNDINAVREKSEFGAAPPPPATLEPHALPNMNGFINKKPRQEIPGIDSNIKSSTLPGLSI”, which protein production is on record?
Answer: failed

Question: With “MDGSNVTSFVVEEPTNISTGRNASVGNAHRQIPIVHWVIMSISPVGFVENGILLWFLCFRMRRNPFTVYITHLSIADISLLFCIFILSIDYALDYELSSGHYYTIVTLSVTFLFGYNTGLYLLTAISVERCLSVLYPIWYRCHRPKYQSALVCALLWALSCLVTTMEYVMCIDREEESHSRNDCRAVIIFIAILSFLVFTPLMLVSSTILVVKIRKNTWASHSSKLYIVIMVTIIIFLIFAMPMRLLYLLYYEYWSTFGNLHHISLLFSTINSSANPFIYFFVGSSKKKRFKESLKVVLTRAFKDEMQPRRQKDNCNTVTVETVV” as the sequence, how does the protein production read?
Answer: failed

Question: With “MDHGVVLLSDDQGLQWRQASSVPLSTPLTGVSFVDAKRGWAVGHWGAILITTDGGESWQVQRLATEEDRPLFAVHFFNARQGVAVGLWSLVLTTEDGGQTWSEQPLQAPPGAKRADLNLMGLFADSRGTLYATAEHGQVLHSEDQGKNWRYLDTGYEGTLWAGAVLADGRLLLGGQRGTLLQGSADGKGFHRVPTQSKGSVTCVAVAGSRVLAVGLDGLSVQSSDGGHSFQETQTADGLSLTAALFNAEGVPVLFSRRGVMPYQELEHHHHHH” as the sequence, how does the protein production read?
Answer: failed
